This note sets out measurements from PMC10343166, “Structure of puromycin-sensitive aminopeptidase and polyglutamine binding” (PLOS ONE, 2023).

Assay [1] has as its target T1, Puromycin-sensitive aminopeptidase, wild type, with C-terminal polyhistidine sequence (kinetic studies) (human, UniProt P55786 1-919).
T1 construct: Human puromycin-sensitive aminopeptidase (PSA, NPEPPS), UniProt P55786; also called PSA^wt; wild type PSA
Description: competitive inhibition of enzyme activity (Dixon plots); apparent Ki from inhibition of Ala-4MβNA cleavage at increasing peptide concentrations; 20 mM HEPES pH 7.0, 2 mM BME, 37°C; 20 μM (PSA^wt) or 100 μM (PSA^F433A) Ala-4MβNA; triplicate. The settings on record: both partners purified.

Assay [2] addresses T2, Puromycin-sensitive aminopeptidase F433A mutant, with C-terminal polyhistidine sequence (human, UniProt P55786 1-919, F433A).
T2 construct: Human puromycin-sensitive aminopeptidase (PSA, NPEPPS), UniProt P55786, with F433A; also called PSA^F433A
The description is as above. The note with it: both partners purified.

T1 sequence (P55786 whole entry): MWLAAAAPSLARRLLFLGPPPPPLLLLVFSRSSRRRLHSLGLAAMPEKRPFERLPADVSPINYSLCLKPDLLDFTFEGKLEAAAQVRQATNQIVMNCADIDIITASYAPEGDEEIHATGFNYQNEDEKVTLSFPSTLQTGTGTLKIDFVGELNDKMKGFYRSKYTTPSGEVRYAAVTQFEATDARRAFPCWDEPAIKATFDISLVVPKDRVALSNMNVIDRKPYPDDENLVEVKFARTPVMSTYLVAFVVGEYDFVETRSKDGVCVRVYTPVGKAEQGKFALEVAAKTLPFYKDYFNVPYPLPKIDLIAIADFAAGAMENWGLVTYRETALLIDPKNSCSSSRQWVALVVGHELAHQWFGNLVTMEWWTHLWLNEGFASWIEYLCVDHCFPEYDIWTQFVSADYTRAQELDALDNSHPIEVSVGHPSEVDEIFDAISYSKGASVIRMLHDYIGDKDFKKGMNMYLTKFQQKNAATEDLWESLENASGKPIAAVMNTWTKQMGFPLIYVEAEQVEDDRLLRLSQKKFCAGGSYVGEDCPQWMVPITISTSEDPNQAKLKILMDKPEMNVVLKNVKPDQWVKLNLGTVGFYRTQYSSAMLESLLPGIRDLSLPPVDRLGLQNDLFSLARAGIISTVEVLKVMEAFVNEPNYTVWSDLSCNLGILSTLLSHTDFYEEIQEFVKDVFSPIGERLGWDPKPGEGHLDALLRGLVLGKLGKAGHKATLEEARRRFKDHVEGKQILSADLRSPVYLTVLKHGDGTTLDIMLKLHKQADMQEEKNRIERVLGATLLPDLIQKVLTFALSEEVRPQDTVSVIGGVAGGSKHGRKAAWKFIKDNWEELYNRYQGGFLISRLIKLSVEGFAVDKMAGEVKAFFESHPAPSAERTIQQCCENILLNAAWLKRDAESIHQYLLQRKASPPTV
T2 sequence (P55786 whole entry F433A): as the sequence (P55786 whole entry) above, with F433A counted along it

B1: Polyglutamine peptide Lys2Gln15Lys2 (peptide)
peptide: KKQQQQQQQQQQQQQQQKK
notes: Printed as Lys2Gln15Lys2 (19-mer); In PDB 8SW1 only 6 residues are modelled, deposited as polyalanine; also called PQ; PQ peptide; source: synthetic peptide, bought: Peptidogenic Research and Co; purified (TFA/hexafluoro-2-propanol, centrifugation)
With B1, the results for the Ki in assay [1] and in assay [2] were 1300 nM and 4.9 µM, respectively.
